Reference: patent US20250243261A1 (CZ BIOHUB SF, published 2025)

Target: T1, full-length Ebola GP on pseudotyped lentivirus (Zaire ebolavirus, UniProt Q05320 33-676)
T1 sequence: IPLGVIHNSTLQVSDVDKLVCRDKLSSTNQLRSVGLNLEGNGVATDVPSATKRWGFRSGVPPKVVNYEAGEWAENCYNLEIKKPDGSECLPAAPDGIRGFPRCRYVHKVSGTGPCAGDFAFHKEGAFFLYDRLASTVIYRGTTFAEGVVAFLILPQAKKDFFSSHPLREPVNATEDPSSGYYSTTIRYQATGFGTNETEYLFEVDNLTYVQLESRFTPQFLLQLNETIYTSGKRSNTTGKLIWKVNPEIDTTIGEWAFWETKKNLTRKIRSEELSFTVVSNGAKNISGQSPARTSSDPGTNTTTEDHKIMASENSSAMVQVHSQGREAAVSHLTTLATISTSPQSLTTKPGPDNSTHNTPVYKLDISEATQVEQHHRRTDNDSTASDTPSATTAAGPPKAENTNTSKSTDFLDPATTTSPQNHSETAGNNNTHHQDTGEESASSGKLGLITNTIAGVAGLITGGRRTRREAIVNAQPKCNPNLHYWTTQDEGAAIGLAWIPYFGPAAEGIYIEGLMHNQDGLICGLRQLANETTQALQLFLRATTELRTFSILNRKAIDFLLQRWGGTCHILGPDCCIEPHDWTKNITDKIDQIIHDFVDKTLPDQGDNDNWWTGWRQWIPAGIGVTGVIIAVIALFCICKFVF
Experiment: cell-based or functional assay

B1: mAb114 WT IgG (antibody, V domains shown)
VH: EVQLVESGGGLIQPGGSLRLSCAASGFALRMYDMHWVRQTIDKRLEWVSAVGPSGDTYYADSVKGRFAVSRENAKNSLSLQMNSLTAGDTAIYYCVRSDRGVAGLFDSWGQGILVTVSS
VL: DIQMTQSPSSLSASVGDRITITCRASQAFDNYVAWYQQRPGKVPKLLISAASALHAGVPSRFSGSGSGTHFTLTISSLQPEDVATYYCQNYNSAPLTFGGGTKVEIK
Q: Which “Ebola GP pseudotyped lentivirus IC50” value does the source give for B1 here?
A: 1.43 nM
